Experimental data reported in patent US20080299666A1, “Novel Peptide-Based Borono-Lectin (PBL) Sensors” (University of South Carolina, priority 2007, published 2008).

Experiments:
[1] = binding with fructose at pH=8; 480 nm to 450 nm; cited from earlier work
[2] = Non-specific binding and BSA blocking: FITC-BSA and FITC-Ovalbumin on PBL library, bead fluorescence; conditions: for Mean of luminosity of fluorescent beads: exposure time 832 ms; for Binding to PBL library by bead fluorescence (non-specific vs specific): exposure time 62.4 ms
Excerpt: On the other hand, we used the PBL library to bind FITC labeled bovine serum album (BSA) to observe non-specific binding. There should not be binding between them because there are no carbohydrates on BSA. The experimental results were compared in FIG. 2.14. […] That means the amount of non-specific binding is less than specific binding. In order to see whether the blocking PBL library with BSA is useful to prevent the non-specific binding, we compared the binding samples with and without blocking with BSA. Two fluorescently labeled proteins were used: FITC-BSA and FITC-Ovalbumin. In FIG. 2.14, it is not easy to differentiate the images 2 and 3 under 62.4 ms exposure time. We increased the exposure time to 832 ms and compared quantitatively the luminosity of fluorescent beads (with red circles). The mean of luminosity for image 2 is 63.57 and 38.84 for image 3; while for image 4 and 5, they are 38.63 and 19.86 respectively. […] In one experiment (Table 2.2, row 1 and 4), we counted the rate of hits which decreased when the PBLs were blocked with BSA.

[3] = Binding of control proteins to the PBL library; conditions: fluorescently labeled protein
Experimental: To minimize non-specific binding, the resin was pre-incubated with 1% BSA. When binding glycoproteins to the library (about 10 min. to 12 hr—about 1 ng/mL to 1 mg/mL), 1% BSA and 10% glycerol were also included. The resin was washed extensively with phosphate buffered saline (PBS) after binding.

[4] = PBL library response to FITC-tagged CEA at varying concentrations; assay type: binding
Excerpt: Higher sensitivity is achieved using longer integration times on the camera to image the beads, up to 25 ms to obtain the 10 pg/mL image.

[5] = Detection limit of fluorescently-labeled glycoproteins bound to PBL library beads (fluorescence microscopy); assay type: binding
Experimental: To determine how low the concentration is at which we can still differentiate the fluorescence of the beads, the PBL library beads were blocked with 1% BSA and then incubated with varying concentration of FITC-labeled ovalbumin, PSM and CEA and CR-labeled ovalbumin and PSM with the addition of 10% (v/v) glycerol overnight. After washing away unbound glycoproteins, fluorescence images were obtained. The PBL library without addition of glycoprotein was used as a control sample. Here, the limit of glycoprotein detection is defined as the lowest concentration of fluorescently-labeled glycoproteins at which their binding to PBL library beads can give enough fluorescence intensity for visual observation. However, the concentration limits are also exposure time dependent, e.g., for FITC-Ovalbumin, and FITC-BSM, the lowest concentrations for visual observation of fluorescence under exposure time 252 ms are about 10 μg/ml, but if the exposure time was increased, the fluorescence can be observed even under dilute concentration. For instance, for FITC-Ovalbumin, the detection limit will lower to about 0.1 μg/ml when exposure time is increased to 4.69 s (FIGS. 2.15, 2.16 and Table 2.3). For FITC-CEA, if observed under 252 ms, the fluorescence of beads is strong. Its concentration limit is about 0.1 (μg/ml) under this exposure time (FIG. 2.17). Stronger fluorescence from FITC-CEA if under the same exposure time as others may be due to CEA having more terminal glycans compared to others.
For CR-glycoproteins, since the PBL library itself is lightly fluorescent under excitation wavelength=510-560 nm, in order to avoid high background interference, we chose comparatively lower exposure time (62.4 ms) when we took the images (FIGS. 2.18 and 2.19). Under this exposure time, the concentration limits for CR-Ovalbumin and CR-PSM were 1 μg/ml (Table 2.3). If we mention the concentration limit of screening, we mention exposure time because the concentration limit is exposure dependent.
FITC-glycoprotein or CR-glycoprotein solution was added into the borono-peptide beads and tumbled overnight at room temperature. The beads were then washed by PBS buffer (0.1M, pH=7.3 150 mM NaCl) (for CR-glycoproteins, beads were washed with methanol first and then washed with PBS buffer) and beads were observed under fluorescence microscope (Nikon, eclipse, E600) and pictures were taken.

[6] = PBL library blocked with BSA (images 3 and 5)
[7] = without BSA blocking (images 2 and 4)

CN(C)c1ccc(/C=C/c2ccc(B(O)O)cc2)cc1 [DSTBA, 4′-Dimethylaminostilbene-4-boronic acid]
Blue shift of the emission [1]: 30 nm

FITC-BSA: FITC labeled bovine serum albumin, not a glycoprotein [reference compound]
Mean of luminosity of fluorescent beads [2, 6]: 38.84 | Binding to PBL library by bead fluorescence (non-specific vs specific) [2]: non-specific binding is minimal | Mean of luminosity of fluorescent beads [2, 7]: 63.57 | Binding to the PBL library (qualitative) [3]: no appreciable binding

B1: FITC-CEA: Carcinoembryonic antigen labeled with FITC (conjugate, UniProt P06731 35-685, looked up)
Cell adhesion molecule CEACAM5: KLTIESTPFNVAEGKEVLLLVHNLPQHLFGYSWYKGERVDGNRQIIGYVIGTQQATPGPAYSGREIIYPNASLLIQNIIQNDTGFYTLHVIKSDLVNEEATGQFRVYPELPKPSISSNNSKPVEDKDAVAFTCEPETQDATYLWWVNNQSLPVSPRLQLSNGNRTLTLFNVTRNDTASYKCETQNPVSARRSDSVILNVLYGPDAPTISPLNTSYRSGENLNLSCHAASNPPAQYSWFVNGTFQQSTQELFIPNITVNNSGSYTCQAHNSDTGLNRTTVTTITVYAEPPKPFITSNNSNPVEDEDAVALTCEPEIQNTTYLWWVNNQSLPVSPRLQLSNDNRTLTLLSVTRNDVGPYECGIQNELSVDHSDPVILNVLYGPDDPTISPSYTYYRPGVNLSLSCHAASNPPAQYSWLIDGNIQQHTQELFISNITEKNSGLYTCQANNSASGHSRTTVKTITVSAELPKPSISSNNSKPVEDKDAVAFTCEPEAQNTTYLWWVNGQSLPVSPRLQLSNGNRTLTLFNVTRNDARAYVCGIQNSVSANRSDPVTLDVLYGPDTPIISPPDSSYLSGANLNLSCHSASNPSPQYSWRINGIPQQHTQVLFIAKITPNNNGTYACFVSNLATGRNNSIVKSITVSASGTSPGLSA
modifications: FITC label
PBL library response (microscope image) ([4]; 10 pg/mL CEA, integration times up to 25 ms): responding | PBL library response (microscope image) ([4]; 10 ng/mL CEA): responding

B2: FITC-Oval: conjugate of fluorescein isothiocyanate and chicken ovalbumin (conjugate, UniProt P01012 2-386, looked up)
Ovalbumin: GSIGAASMEFCFDVFKELKVHHANENIFYCPIAIMSALAMVYLGAKDSTRTQINKVVRFDKLPGFGDSIEAQCGTSVNVHSSLRDILNQITKPNDVYSFSLASRLYAEERYPILPEYLQCVKELYRGGLEPINFQTAADQARELINSWVESQTNGIIRNVLQPSSVDSQTAMVLVNAIVFKGLWEKAFKDEDTQAMPFRVTEQESKPVQMMYQIGLFRVASMASEKMKILELPFASGTMSMLVLLPDEVSGLEQLESIINFEKLTEWTSSNVMEERKIKVYLPRMKMEEKYNLTSVLMAMGITDVFSSSANLSGISSAESLKISQAVHAAHAEINEAGREVVGSAEAGVDAASVSEEFRADHPFLFCIKHIATNAVLFFGRCVSP
modifications: FITC label
notes: conjugate of fluorescein isothiocyanate and chicken ovalbumin
Concentration limit (detection limit) ([5]; FITC label, exposure time 4.69 s): about 0.1 μg/ml | Concentration limit (detection limit) ([5]; FITC label, exposure time 252 ms, beads blocked with 1% BSA, 10% (v/v) glycerol, overnight): 10 µg/mL | Concentration limit (detection limit) ([5]; FITC label, exposure time 252 ms, beads blocked with 1% BSA, 10% (v/v) glycerol, overnight, listed as FITC-Ovalbumin): about 10 μg/ml | Mean of luminosity of fluorescent beads [2, 6]: 19.86 | Binding to PBL library by bead fluorescence (non-specific vs specific) [2]: fluorescence can be observed clearly | Mean of luminosity of fluorescent beads [2, 7]: 38.63

B3: CR-Oval: ovalbumin labeled with carboxyrhodamine (conjugate, UniProt P01012 2-386, looked up)
Ovalbumin: GSIGAASMEFCFDVFKELKVHHANENIFYCPIAIMSALAMVYLGAKDSTRTQINKVVRFDKLPGFGDSIEAQCGTSVNVHSSLRDILNQITKPNDVYSFSLASRLYAEERYPILPEYLQCVKELYRGGLEPINFQTAADQARELINSWVESQTNGIIRNVLQPSSVDSQTAMVLVNAIVFKGLWEKAFKDEDTQAMPFRVTEQESKPVQMMYQIGLFRVASMASEKMKILELPFASGTMSMLVLLPDEVSGLEQLESIINFEKLTEWTSSNVMEERKIKVYLPRMKMEEKYNLTSVLMAMGITDVFSSSANLSGISSAESLKISQAVHAAHAEINEAGREVVGSAEAGVDAASVSEEFRADHPFLFCIKHIATNAVLFFGRCVSP
modifications: carboxyrhodamine label
notes: ovalbumin labeled with carboxyrhodamine
Concentration limit (detection limit) ([5]; CR label, exposure time 62.4 ms, beads blocked with 1% BSA, 10% (v/v) glycerol, overnight): 1 µg/mL
